The values that follow come from US20190041402A1 (GOVERNING COUNCIL OF THE UNIVERSITY OF TORONTO, published 2019).

One assay has as its target T1, rat αKlotho (endogenous) (rat, UniProt Q9Z2Y9 35-983).
T1 sequence (looked up): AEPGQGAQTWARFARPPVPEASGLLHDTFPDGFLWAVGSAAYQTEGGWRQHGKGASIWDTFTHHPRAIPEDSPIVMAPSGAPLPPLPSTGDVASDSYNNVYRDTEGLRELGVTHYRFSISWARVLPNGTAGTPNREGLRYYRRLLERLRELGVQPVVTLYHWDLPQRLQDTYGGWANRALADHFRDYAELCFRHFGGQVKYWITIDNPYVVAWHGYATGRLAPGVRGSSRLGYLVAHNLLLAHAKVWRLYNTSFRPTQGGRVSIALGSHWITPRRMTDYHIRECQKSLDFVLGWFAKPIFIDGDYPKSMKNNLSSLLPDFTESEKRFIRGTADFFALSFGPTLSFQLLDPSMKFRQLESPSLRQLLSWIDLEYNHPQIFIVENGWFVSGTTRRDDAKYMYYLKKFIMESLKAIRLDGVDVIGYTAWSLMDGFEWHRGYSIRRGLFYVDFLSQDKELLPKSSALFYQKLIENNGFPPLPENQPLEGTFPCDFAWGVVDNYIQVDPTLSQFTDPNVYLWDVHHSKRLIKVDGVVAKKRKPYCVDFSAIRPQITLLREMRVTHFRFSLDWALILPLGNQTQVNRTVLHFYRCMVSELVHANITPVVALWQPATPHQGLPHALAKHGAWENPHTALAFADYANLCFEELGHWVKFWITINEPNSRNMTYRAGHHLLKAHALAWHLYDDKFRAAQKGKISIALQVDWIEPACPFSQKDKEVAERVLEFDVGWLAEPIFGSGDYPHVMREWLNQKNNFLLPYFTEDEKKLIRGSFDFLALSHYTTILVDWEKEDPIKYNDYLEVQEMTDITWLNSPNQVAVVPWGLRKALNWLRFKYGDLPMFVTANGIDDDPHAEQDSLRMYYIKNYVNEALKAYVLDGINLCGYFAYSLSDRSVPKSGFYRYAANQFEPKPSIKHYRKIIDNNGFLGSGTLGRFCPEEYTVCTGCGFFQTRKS
Kind of assay: immunoprecipitation-immunoblot, serum and urine; native soluble αKlotho in rat serum; immunoprecipitation-immunoblot. The protocol: The ELISA was performed as instructed by the manufacturer (Immuno-Biological Laboratory, Japan). For the IP-IB assay, typically 50 μl of serum or urine were diluted with KRH buffer [25 mM Hepes-NaOH (pH 7.4), 120 mM NaCl, 5 mM KCl, 1.2 mM MgSO4, 1.3 mM CaCl2, 1.3 mM KH2PO4] to a final volume of 0.5 ml incubated with 2 μg of sb106-Fab overnight at 4° C. in low binding, siliconized tubes. Sepharose beads (50 μL) conjugated with anti-FLAG antibody (50% v/v) prewashed 3× with KRH buffer were added, incubated (4° C.×2 h), and washed (KRH-500 μl per tube ×3; 22° C.). The immune complex was eluted with 2×SDS sample loading buffer (50 μl; 100° C.×3 min; 4° C.×3 min; spun), and fractionated by SDS-PAGE, transferred to nitrocellulose membranes and blotted with anti-KL1 antibody (KM2076, 1:4000 or 3.1 mg/mL, 1:10000 dilution) and diluent (Dako#S3022, Carpinteria, Calif., USA) overnight (4° C., rocker). The membrane was washed (×3, Tris-buffered saline with 0.1% Tween; TBS-T), exposed to anti-rat IgG2A (LSBio cat#LS-059051, 1:20000 in 5% milk/2% goat serum/TBS-T×1 h) and washed (×3 TBS-T). For chemiluminescence, the membrane was covered with SuperSignal West Femto Maximum Sensitivity substrate (Thermo Scientific, Rockford, Ill., USA) and exposed for 30-90 s. The 130-kD bands were scanned, and density was compared with internal control samples of know amount of Klotho using Adobe Photoshop CS4.
In general terms: In western blotting, separated proteins are transferred to a membrane and probed.

Assay [1] concerns the target T2, soluble human αKlotho (recombinant) (human, UniProt Q9UEF7 34-981).
T2 construct: also called Hu aKL; recombinant human αKlotho
T2 sequence (looked up): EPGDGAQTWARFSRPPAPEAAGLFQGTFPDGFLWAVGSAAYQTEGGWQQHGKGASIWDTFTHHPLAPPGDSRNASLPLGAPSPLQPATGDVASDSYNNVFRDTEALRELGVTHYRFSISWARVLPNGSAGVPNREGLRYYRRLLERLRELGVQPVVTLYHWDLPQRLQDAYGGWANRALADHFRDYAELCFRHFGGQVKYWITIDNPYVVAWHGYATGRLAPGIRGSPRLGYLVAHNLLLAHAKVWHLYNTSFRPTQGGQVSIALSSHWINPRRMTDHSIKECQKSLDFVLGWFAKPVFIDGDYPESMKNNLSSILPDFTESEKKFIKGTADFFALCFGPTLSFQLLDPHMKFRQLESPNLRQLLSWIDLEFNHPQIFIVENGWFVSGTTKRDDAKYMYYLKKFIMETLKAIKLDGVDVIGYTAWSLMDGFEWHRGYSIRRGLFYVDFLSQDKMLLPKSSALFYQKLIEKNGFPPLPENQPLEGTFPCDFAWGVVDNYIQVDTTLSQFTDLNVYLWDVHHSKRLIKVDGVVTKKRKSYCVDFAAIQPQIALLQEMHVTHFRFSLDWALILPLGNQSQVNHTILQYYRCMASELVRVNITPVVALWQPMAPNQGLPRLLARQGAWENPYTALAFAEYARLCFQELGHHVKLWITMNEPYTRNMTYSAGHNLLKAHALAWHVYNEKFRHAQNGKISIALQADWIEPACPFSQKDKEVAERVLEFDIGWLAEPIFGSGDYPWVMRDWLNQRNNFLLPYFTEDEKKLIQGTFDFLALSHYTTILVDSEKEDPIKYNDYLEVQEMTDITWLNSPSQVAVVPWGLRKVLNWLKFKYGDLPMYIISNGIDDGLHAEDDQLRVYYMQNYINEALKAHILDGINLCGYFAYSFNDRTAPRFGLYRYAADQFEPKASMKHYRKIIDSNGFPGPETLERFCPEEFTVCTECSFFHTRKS
The experiment in a line: SPR (ProteOn XPR36), Fab captured by anti-IgG(H+L), human αKlotho injected in serial dilutions, Langmuir fit. On the procedure:
(§1) Estimated affinities against human and mouse antigen for select αKlotho Fabs were obtained by surface plasmon resonance on a ProteOn XPR36 (FIG. 17). Fabs were captured using an anti-IgG(H+L) antibody and serial dilutions of αKlotho were injected. Binding curves were fitted to the Langmuir model. (A) Determined Kon, Koff and KD values. (B) and (C) Binding curves for human and mouse antigen respectively.

For assay [2], the target named is T2, soluble human αKlotho (recombinant). Kind of assay: SPR (ProteOn XPR36), Fab captured by anti-IgG(H+L), human αKlotho injected in serial dilutions, Langmuir fit [continued) B.]. On the procedure:
as §1

B1: sb106 Fab (Fab, V domains shown)
VH: EVQLVESGGGLVQPGGSLRLSCAASGFNISYYSIHWVRQAPGKGLEWVAYISPSYGYTSYADSVKGRFTISADTSKNTAYLQMNSLRAEDTAVYYCARYYVYASHGWAGYGMDYWGQGTLVTVSS
VL: DIQMTQSPSSLSASVGDRVTITCRASQSVSSAVAWYQQKPGKAPKLLIYSASSLYSGVPSRFSGSRSGTDFTLTISSLQPEDFATYYCQQAGYSPITFGQGTKVEIKR
notes: also called Fsb106; clone 48
In the case of B1, the binding result with rat αKlotho (endogenous) is given as “binds”. Further, in assay [1], the Kd is 1.02 nM, the koff was determined as 0.000315 s⁻¹ and the kon was determined as 308000 M⁻¹ s⁻¹. In assay [2], the Kd was 1.02 nM, the koff is 0.000315 s⁻¹ and the kon was 308000 M⁻¹ s⁻¹.

Usually Kd stands for a measure of binding affinity in units of concentration. By koff is commonly meant a measure of how fast the partners let go of each other. By kon is commonly meant the rate constant with which the complex forms.
